Test results taken from article PMC4436075 (mBio, 2015).

Biological target: the molecule itself
Assay: cross-linking

B1: Alg44-6His (natural protein, Pseudomonas aeruginosa, UniProt Q9HY69 1-389, looked up)
chain: MNTAVNVNVVHESEAQRQFARVKLPARIRYIGANREGVDARLLDLSAGGFAFTASGAPIQPGDLYKGKLLFQVDSISFSLEVEFQVRSVDPASRRVGCEFQNLKPREVAALRYLITSYLAGEVIGVGDMLNTLQRENFTKARKQGGGNGGMGFFGRVRAVTLSTAIFVVGVGAFAFILNQMYNLYFVTHADSGVVSVPNQQITMPREGTVQSLLGPNAEVAKGAPIATFSANLLDMLKGNLTEEQLNPGNIEKLFGHQMKGTLTSPCDCRVVQQLVADGQYANKGQVIFTLAPRDSVASIEARFPYRNAAELAPGTRVNFQVAGDGVNRSGRIVNTAPVDGDLSSEIRVQIQPDQPLDAQYAGRPAEVSIGGLPGRTLLNKAVTLATAR
B1 was tested, and the “stoichiometry N” value was 2.
